Target: microtubules (polymers of alpha- and beta-tubulin) of Drosophila head lysate (D. melanogaster (endogenous in adult fly heads)) (UniProt P06603)
Experiment: co-sedimentation; in vivo microtubule-binding assay: 50 wild-type fly heads homogenised in Buffer-C+ (50 mM HEPES pH 7.1, 1.0 mM MgCl2, 1.0 mM EGTA, protease and phosphatase inhibitors) with 20 uM Taxol; 100,000 x g for 30 min through a 50% sucrose cushion; pellet blotted with anti-Pfdn5 and anti-ace-tubulin

UniProt P06603, sequence (P06603 whole entry, chain 1 of 2): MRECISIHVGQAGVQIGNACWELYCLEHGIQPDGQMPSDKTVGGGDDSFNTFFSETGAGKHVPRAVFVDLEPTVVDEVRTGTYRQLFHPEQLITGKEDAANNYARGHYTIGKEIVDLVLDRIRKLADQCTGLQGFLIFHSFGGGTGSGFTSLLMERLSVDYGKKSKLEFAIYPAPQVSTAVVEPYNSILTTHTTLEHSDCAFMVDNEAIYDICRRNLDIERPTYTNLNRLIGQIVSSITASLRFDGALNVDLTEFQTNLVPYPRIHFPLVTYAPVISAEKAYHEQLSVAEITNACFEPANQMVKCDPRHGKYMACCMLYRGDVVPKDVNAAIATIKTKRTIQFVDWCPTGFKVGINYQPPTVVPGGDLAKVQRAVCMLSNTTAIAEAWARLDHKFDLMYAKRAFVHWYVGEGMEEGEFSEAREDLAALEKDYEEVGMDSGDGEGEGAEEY
UniProt P06603, sequence (Q24560 whole entry, chain 2 of 2, further chain): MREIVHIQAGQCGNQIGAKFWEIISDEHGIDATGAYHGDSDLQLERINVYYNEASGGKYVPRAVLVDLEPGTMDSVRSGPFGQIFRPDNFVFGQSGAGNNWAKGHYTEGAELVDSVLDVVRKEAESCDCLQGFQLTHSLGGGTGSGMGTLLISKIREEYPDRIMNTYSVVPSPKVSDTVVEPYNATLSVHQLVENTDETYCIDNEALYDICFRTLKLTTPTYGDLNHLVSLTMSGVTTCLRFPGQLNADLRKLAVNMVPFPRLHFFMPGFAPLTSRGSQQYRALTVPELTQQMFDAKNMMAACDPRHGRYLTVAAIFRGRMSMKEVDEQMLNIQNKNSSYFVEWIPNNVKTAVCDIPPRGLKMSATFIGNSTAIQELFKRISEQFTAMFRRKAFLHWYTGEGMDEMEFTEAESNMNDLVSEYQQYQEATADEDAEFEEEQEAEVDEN

percentage of Pfdn5 in the pellet fraction: 36.7%
B1: Prefoldin 5 (natural protein)
chain: MAATPSAPAKSEMIDLTKLSPEQLIQIKQEFEQEITNVQDSLSTLHGCQAKYAGSKEALGTFQPNWENRQILVPLTSSMYVPGRVKDLNRFVIDIGTGYYIEKDLEGSKDYFKRRVEYVQEQIEKIEKIHLQKTRFYNSVMSVLEMKQAAAAKLQSQQQSQPAVTQSS
